B1: SNAP-FZD5 (Frizzled 5), wild type [human] / DEP_(414–507)-GFP, minimal DEP domain of DVL2 [human] (parent)
chain 1: GRGLSVHTDMASVTKAMAAPESGLEVRDRMWLKITIPNAFLGSDVVDWLYHHVEGFPERREARKYASGLLKAGLIRHTVNKITFSEQCYYVFGD
chain 2: ASKAPVCQEITVPMCRGIGYNLTHMPNQFNHDTQDEAGLEVHQFWPLVEIQCSPDLRFFLCSMYTPICLPDYHKPLPPCRSVCERAKAGCSPLMRQYGFAWPERMSCDRLPVLGRDAEVLCMDYNRSEATTAPPRPFPAKPTLPGPPGAPASGGECPAGGPFVCKCREPFVPILKESHPLYNKVRTGQVPNCAVPCYQPSFSADERTFATFWIGLWSVLCFISTSTTVATFLIDMERFRYPERPIIFLSACYLCVSLGFLVRLVVGHASVACSREHNHIHYETTGPALCTIVFLLVYFFGMASSIWWVILSLTWFLAAGMKWGNEAIAGYAQYFHLAAWLIPSVKSITALALSSVDGDPVAGICYVGNQNLNSLRGFVLGPLVLYLLVGTLFLLAGFVSLFRIRSVIKQGGTKTDKLEKLMIRIGIFTLLYTVPASIVVACYLYEQHYRESWEAALTCACPGHDTGQPRAKPEYWVLMLKYFMCLVVGITSGVWIWSGKTVESWRRFTSRCCCRPRRGHKSGGAMAAGDYPEASAALTGRTGPPGPAATYHKQVSLSHV

Variants of B1 are the subject of this assay. Briefly: FZD5-dependent PM recruitment of DEP-GFP (cell scoring). As to conditions: with DEP_(414–507)-GFP, 100 cells scored in each case.

chain 2 A326T: under “parent: 88, read off a plot”, the screen value was 41 % of cells. Consider chain 2 K321A, for which the screen value was 45 % of cells (parent: 52, read off a plot) and 92 % of cells (parent: 88, read off a plot). For the variant chain 2 I327A, the screen value (parent: 88, read off a plot) was 30 % of cells.

Take chain 2 V406A: the screen value runs as follows: (parent: 52, read off a plot) 49 % of cells; (parent: 88, read off a plot) 86 % of cells. Turning to chain 2 R237A, the screen value by setting is: (parent: 52, read off a plot) 12 % of cells; (parent: 88, read off a plot) 77 % of cells.

chain 2 P241A: the screen value (parent: 88, read off a plot) is 20 % of cells. Turning to chain 2 E502A, the screen value is, setting by setting: (parent: 52, read off a plot) 50 % of cells; (parent: 88, read off a plot) 92 % of cells. Consider chain 2 W494A, for which the screen value (parent: 88, read off a plot) is 21 % of cells. For the variant chain 2 W504A, the screen value is, setting by setting: (parent: 52, read off a plot) 3 % of cells; (parent: 88, read off a plot) 24 % of cells.

On to chain 2 L420A, for which the screen value (parent: 88, read off a plot) was 41 % of cells. For the variant chain 2 S503A, the screen value runs as follows: (parent: 52, read off a plot) 50 % of cells; (parent: 88, read off a plot) 93 % of cells.
